# Data taken from patent US8975259B2, “Compositions and methods for inhibiting G protein signaling” (University of Rochester, priority 2007, dated 2015).
# Read-outs that look alike come from different tables or passages of the source.
# Columns and labels:
# Gβ1γ2 = Gβ1γ2 (UniProt P54311+P63212); experiment: Competition phage ELISA: inhibition of SIGK-phage binding to immobilized biotinylated Gβ1γ2; set-up: made in house; host or cells: Sf9 insect cells (baculovirus; co-expressed with BirA and (His)6-Gαi1, from which βγ was eluted); species or system rat; conditions: for binding to the G protein β subunit: result in words
# Description: Phage ELISA assays used to assess peptide binding to wild-type and mutant b-βγ were performed according to standard methods (Smrcka and Scott (2002) Methods Enzymol. 344:557-76). Briefly, 1 μg streptavidin was immobilized in the well of a […] overnight at 4° C. The wells were blocked with 100 μL of 2% bovine serum albumin (BSA) in Tris-buffered saline (TBS) for 1 hour at 4° C. followed by three washes of IX TBS/0.5% TWEEN®. […] The wells were washed, followed by the addition of IxIO^6 to IxIO^10 phage particles and incubated at 4° C. for 3 hours. The wells were then washed six times with TBS/0.5% TWEEN® followed by addition of 40 μL of 1:5000 dilution of anti-M13 antibody (Pharmacia, Uppsala, Sweden) and incubated at room temperature for 1 hour. The wells were washed, followed by the addition of 40 μL of (2,2′-Azino-bis (3-ethylbenzthiazoline)-6-sulfonic acid (ABTS) and the colorimetric reaction was monitored at 405 nm. Nonspecific binding was subtracted for each reading.
# A phage ELISA assay was used to determine whether small molecules identified in the computational screen could interact with the Gβy protein interaction surface. […] The screen was based on a reduction in the optical density (OD) of wells containing Gβγ subunits and phage. […] Three background wells contained no βy subunits.
# As disclosed herein, biotinylated Gβy subunits were immobilized on the surface of a 96-well plate coated with streptavidin, phage displaying Gβγ-binding peptides were subsequently added and binding in the presence and absence of test compounds detected with an anti-phage antibody.
# The phage ELISA assay was used to rapidly screen the ability of compounds to bind to the protein interaction “hot spot” based on the method of Scott et. al (Scott et al., 2001). This assay is performed in the presence of detergent (0.5% Tween) to eliminate non-specific compound aggregation artifacts.
# Compounds/DMSO and 0.1×10^10 phage were added simultaneously and subsequently incubated for 1 h at room temperature. Plates were then washed with 1× Tris-buffered saline/0.5% Tween 20 and incubated with anti-M13, HRP-conjugated antibody (Amersham, Chalfont St. Giles, Buckinghamshire, UK). Phage binding was determined by monitoring A405 upon addition of 2,2′-azino-bis(3-ethylbenzothiazoline-6-sulfonic acid) (Sigma Aldrich).
# Gβ1γ2 (Gβ1 mutants) [1] = biological target: T1, Gβ1γ2 (Gβ1 mutants) (UniProt P54311+P63212, D246S); experiment: Phage ELISA: binding of peptide-displaying phage to wild-type or alanine-substituted b-βγ; set-up: species or system rat; conditions: Gβ1 Asp246Ser; mean ± SD
# T1 construct: made in house; host or cells: Sf9 insect cells (baculovirus), partially purified via (His)6-Gαi1 on Ni-NTA
# Text: (§1) Wild-type Gβ1 and Gp1 mutants were made in the baculovirus vector PDW464 which encodes a biotinylation site at a lysine upstream of the amino terminus of Gβ1 (Goubaeva, et al. (2003) supra). Mutants were generated by overlap extension PCR using standard protocols. The wild-type and mutant Gβ1 constructs consisted of a 20 amino acid biotin acceptor peptide (BAP) sequence fused in-frame with the amino-terminus of rat Gβ1 subunit. When coexpressed with biotin holoenzyme synthetase (BirA) in Sf9 cells, the Gβ1 subunit becomes covalently biotinylated in vivo at the specific lysine acceptor residue in the BAP. Using this approach, 1-2 mg protein of purified protein can be obtained per liter of Sf9 insect cells. As 45 ng of protein is used in the phage ELISA assay, a single purification is sufficient for 10,000 to 30,000 binding assays.
# (§2) Phage ELISA assays used to assess peptide binding to wild-type and mutant b-βγ were performed according to standard methods (Smrcka and Scott (2002) Methods Enzymol. 344:557-76). Briefly, 1 μg streptavidin was immobilized in the well of a […] overnight at 4° C. The wells were blocked with 100 μL of 2% bovine serum albumin (BSA) in Tris-buffered saline (TBS) for 1 hour at 4° C. followed by three washes of IX TBS/0.5% TWEEN®. Forty μL of 25 nM bGβ1γ2 in TBS/0.5% TWEEN® was added to each well and incubated at 4° C. for 1.5 hour. The wells were washed, followed by the addition of IxIO^6 to IxIO^10 phage particles and incubated at 4° C. for 3 hours. The wells were then washed six times with TBS/0.5% TWEEN® followed by addition of 40 μL of 1:5000 dilution of anti-M13 antibody (Pharmacia, Uppsala, Sweden) and incubated at room temperature for 1 hour. The wells were washed, followed by the addition of 40 μL of (2,2′-Azino-bis (3-ethylbenzthiazoline)-6-sulfonic acid (ABTS) and the colorimetric reaction was monitored at 405 nm. Nonspecific binding was subtracted for each reading.
# (§3) The nine peptides were selected to represent the different consensus groups of peptides previously identified (See Scott et al. (2001) supra; Table 15) and to compare binding characteristics within and between consensus groups. […] As disclosed herein, the binding signal obtained in the ELISA assay was correlated to a loss in affinity by comparing the results to behavior of the peptide in a solution based assay. […] For the purposes of present disclosure, any substitution that decreased the binding to less than 20% of the wild-type binding was considered to be a critical binding contact for that peptide.
# Gβ1γ2 (Gβ1 mutants) [2] = biological target: T2, Gβ1γ2 (Gβ1 mutants) (UniProt P54311+P63212, W99A); experiment: as above; set-up: species or system rat; conditions: Gβ1 Trp99Ala; mean ± SD
# T2 construct: made in house; host or cells: Sf9 insect cells (baculovirus), partially purified via (His)6-Gαi1 on Ni-NTA
# Text: as §1, §2, §3
# Gβ1γ2 (Gβ1 mutants) [3] = biological target: T3, Gβ1γ2 (Gβ1 mutants) (UniProt P54311+P63212, Y59A); experiment: as above; set-up: species or system rat; conditions: Gβ1 Tyr59Ala; mean ± SD
# T3 construct: made in house; host or cells: Sf9 insect cells (baculovirus), partially purified via (His)6-Gαi1 on Ni-NTA
# Text: as §1, §2, §3
# Gβ1γ2 (Gβ1 mutants) [4] = biological target: T4, Gβ1γ2 (Gβ1 mutants) (UniProt P54311+P63212, W332A); experiment: as above; set-up: species or system rat; conditions: Gβ1 Trp332Ala; mean ± SD
# T4 construct: made in house; host or cells: Sf9 insect cells (baculovirus), partially purified via (His)6-Gαi1 on Ni-NTA
# Text: as §1, §2, §3
# Gβ1γ2 (Gβ1 mutants) [5] = biological target: T5, Gβ1γ2 (Gβ1 mutants) (UniProt P54311+P63212, N230A); experiment: as above; set-up: species or system rat; conditions: Gβ1 Asn230Ala; mean ± SD
# T5 construct: made in house; host or cells: Sf9 insect cells (baculovirus), partially purified via (His)6-Gαi1 on Ni-NTA
# Text: as §1, §2, §3
# Gβ1γ2 (Gβ1 mutants) [6] = biological target: T6, Gβ1γ2 (Gβ1 mutants) (UniProt P54311+P63212, Y145A); experiment: as above; set-up: species or system rat; conditions: Gβ1 Tyr145Ala; mean ± SD
# T6 construct: made in house; host or cells: Sf9 insect cells (baculovirus), partially purified via (His)6-Gαi1 on Ni-NTA
# Text: as §1, §2, §3
# Gβ1γ2 (Gβ1 mutants) [7] = biological target: T7, Gβ1γ2 (Gβ1 mutants) (UniProt P54311+P63212, R314A); experiment: as above; set-up: species or system rat; conditions: Gβ1 Arg314Ala; mean ± SD
# T7 construct: made in house; host or cells: Sf9 insect cells (baculovirus), partially purified via (His)6-Gαi1 on Ni-NTA
# Text: as §1, §2, §3
# Gβ1γ2 (Gβ1 mutants) [8] = biological target: T8, Gβ1γ2 (Gβ1 mutants) (UniProt P54311+P63212, D186A); experiment: as above; set-up: species or system rat; conditions: Gβ1 Asp186Ala; mean ± SD
# T8 construct: made in house; host or cells: Sf9 insect cells (baculovirus), partially purified via (His)6-Gαi1 on Ni-NTA
# Text: as §1, §2, §3
# Gβ1γ2 (Gβ1 mutants) [9] = biological target: T9, Gβ1γ2 (Gβ1 mutants) (UniProt P54311+P63212, M188A); experiment: as above; set-up: species or system rat; conditions: Gβ1 Met188Ala; mean ± SD
# T9 construct: made in house; host or cells: Sf9 insect cells (baculovirus), partially purified via (His)6-Gαi1 on Ni-NTA
# Text: as §1, §2, §3
# Gβ1γ2 (Gβ1 mutants) [10] = biological target: T10, Gβ1γ2 (Gβ1 mutants) (UniProt P54311+P63212, M101A); experiment: as above; set-up: species or system rat; conditions: Gβ1 Met101Ala; mean ± SD
# T10 construct: made in house; host or cells: Sf9 insect cells (baculovirus), partially purified via (His)6-Gαi1 on Ni-NTA
# Text: as §1, §2, §3
# Gβ1γ2 (Gβ1 mutants) [11] = biological target: T11, Gβ1γ2 (Gβ1 mutants) (UniProt P54311+P63212, L117A); experiment: as above; set-up: species or system rat; conditions: Gβ1 Leu117Ala; mean ± SD
# T11 construct: made in house; host or cells: Sf9 insect cells (baculovirus), partially purified via (His)6-Gαi1 on Ni-NTA
# Text: as §1, §2, §3
# Gβ1γ2 (Gβ1 mutants) [12] = biological target: T12, Gβ1γ2 (Gβ1 mutants) (UniProt P54311+P63212, K57A); experiment: as above; set-up: species or system rat; conditions: Gβ1 Lys57Ala; mean ± SD
# T12 construct: made in house; host or cells: Sf9 insect cells (baculovirus), partially purified via (His)6-Gαi1 on Ni-NTA
# Text: as §1, §2, §3
# Gβ1γ2 (Gβ1 mutants) [13] = biological target: T13, Gβ1γ2 (Gβ1 mutants) (UniProt P54311+P63212, H311A); experiment: as above; set-up: species or system rat; conditions: Gβ1 His311Ala; mean ± SD
# T13 construct: made in house; host or cells: Sf9 insect cells (baculovirus), partially purified via (His)6-Gαi1 on Ni-NTA
# Text: as §1, §2, §3
compound,measurement,setting,value
"Cc1c2cc(O)c(=O)cc-2oc2cc(O)c(O)cc12 [2,6,7-trihydroxy-9-methyl-3H-xanthen-3-one]",binding to the G protein β subunit,Gβ1γ2,did not provide a compound that exhibited binding
Cc1cc(N)c2cc(CC(=O)C(C)(C)C(=O)Nc3ccc4nc(C)cc(N)c4c3)ccc2n1,IC50,"Gβ1γ2; Table 7, read-out: ELISA IC50",74 µM
CNc1ccc(Nc2cc(S(=O)(=O)O)c(N)c3c2C(=O)c2ccccc2C3=O)cc1,IC50,"Gβ1γ2; Table 2, read-out: Elisa IC50",59 µM
SCARFFGTPGCT [Compound C8],% of Wild-Type Signal,Gβ1γ2 (Gβ1 mutants) [1],60.8 ± 14.4%
same,% of Wild-Type Signal,Gβ1γ2 (Gβ1 mutants) [2],−0.8 ± 2.7%
same,% of Wild-Type Signal,Gβ1γ2 (Gβ1 mutants) [3],4.0 ± 6.2%
same,% of Wild-Type Signal,Gβ1γ2 (Gβ1 mutants) [4],0.7 ± 2.4%
same,% of Wild-Type Signal,Gβ1γ2 (Gβ1 mutants) [5],74.8 ± 14.8%
same,% of Wild-Type Signal,Gβ1γ2 (Gβ1 mutants) [6],17.5 ± 7.8%
same,% of Wild-Type Signal,Gβ1γ2 (Gβ1 mutants) [7],20.8 ± 11.1%
same,% of Wild-Type Signal,Gβ1γ2 (Gβ1 mutants) [8],124.9 ± 29.1%
same,% of Wild-Type Signal,Gβ1γ2 (Gβ1 mutants) [9],122.6 ± 26.2%
same,% of Wild-Type Signal,Gβ1γ2 (Gβ1 mutants) [10],23.6 ± 8.5%
same,% of Wild-Type Signal,Gβ1γ2 (Gβ1 mutants) [11],24.7 ± 12.5%
same,% of Wild-Type Signal,Gβ1γ2 (Gβ1 mutants) [12],14.2 ± 9.8%
same,% of Wild-Type Signal,Gβ1γ2 (Gβ1 mutants) [13],51.6 ± 13.2%
O=C(O)c1ccccc1-c1c2ccc(=O)c(O)c-2oc2c(O)c(O)ccc12,IC50,Gβ1γ2; Table 6,0.2 µM
Nc1ccc(-c2ccc(Nc3cc(S(=O)(=O)O)c(N)c4c3C(=O)c3ccccc3C4=O)cc2)c(S(=O)(=O)O)c1 [Compound M125],IC50,"Gβ1γ2; Table 8, read-out: IC50",68 µM
same,IC50,"Gβ1γ2; Table 18, compounds identified in Elisa screen, read-out: IC50",18 µM
Ic1ccc2c(c1)N(c1ccccc1)c1cc(Nc3ccc4c(c3)N(c3ccccc3)c3cc(I)ccc3N4)ccc1N2,IC50,"Gβ1γ2; Table 7, read-out: ELISA IC50",2 µM
O=C(O)C1CCCCC1c1c2ccc(=O)c(O)c-2oc2c(O)c(O)ccc12 (stereo not shown) [drawing 103],IC50,"Gβ1γ2; SIGK IC50, Table 6",0.2 µM
WCPPKAMTQLGIKAC [Compound C14],% of Wild-Type Signal,Gβ1γ2 (Gβ1 mutants) [1],6.3 ± 13.9%
same,% of Wild-Type Signal,Gβ1γ2 (Gβ1 mutants) [2],10.1 ± 3.3%
same,% of Wild-Type Signal,Gβ1γ2 (Gβ1 mutants) [3],3.6 ± 2.0%
same,% of Wild-Type Signal,Gβ1γ2 (Gβ1 mutants) [4],1.6 ± 2.4%
same,% of Wild-Type Signal,Gβ1γ2 (Gβ1 mutants) [5],60.0 ± 26.5%
same,% of Wild-Type Signal,Gβ1γ2 (Gβ1 mutants) [6],1.9 ± 5.9%
same,% of Wild-Type Signal,Gβ1γ2 (Gβ1 mutants) [7],3.9 ± 7.9%
same,% of Wild-Type Signal,Gβ1γ2 (Gβ1 mutants) [8],3.6 ± 1.9%
same,% of Wild-Type Signal,Gβ1γ2 (Gβ1 mutants) [9],9.9 ± 3.8%
same,% of Wild-Type Signal,Gβ1γ2 (Gβ1 mutants) [10],1.1 ± 4.9%
same,% of Wild-Type Signal,Gβ1γ2 (Gβ1 mutants) [11],3.8 ± 9.2%
same,% of Wild-Type Signal,Gβ1γ2 (Gβ1 mutants) [12],3.0 ± 5.0%
same,% of Wild-Type Signal,Gβ1γ2 (Gβ1 mutants) [13],6.1 ± 3.4%
O=C(O)/C=C/c1c2ccc(=O)cc-2oc2cc(O)ccc12 [(E)-3-(6-hydroxy-3-oxo-3H-xanthe-9-yl)acrylic acid],binding to the G protein β subunit,Gβ1γ2,Neither of these compounds showed any binding
Nc1ccc(-c2ccc(Nc3cc(S(=O)(=O)O)c(N)c4c3C(=O)c3ccccc3C4=O)cc2)c(S(=O)(=O)O)c1 [drawing 54],IC50,"Gβ1γ2; Table 2, read-out: Elisa IC50",18 µM
CC1C2C=CC1C(c1c3ccc(=O)c(O)c-3oc3c(O)c(O)ccc13)C2C(=O)O (stereo not shown),IC50,Gβ1γ2; Table 6,0.7 µM
